# Measured values published in patent publication US8034355.
# Target: VSV L protein (wild type, rVSV) (Vesicular stomatitis Indiana virus) (UniProt P03523)
# Details: 5' Gppp cap (7mGpppAm when fully methylated)
# UniProt P03523, sequence (P03523 whole entry): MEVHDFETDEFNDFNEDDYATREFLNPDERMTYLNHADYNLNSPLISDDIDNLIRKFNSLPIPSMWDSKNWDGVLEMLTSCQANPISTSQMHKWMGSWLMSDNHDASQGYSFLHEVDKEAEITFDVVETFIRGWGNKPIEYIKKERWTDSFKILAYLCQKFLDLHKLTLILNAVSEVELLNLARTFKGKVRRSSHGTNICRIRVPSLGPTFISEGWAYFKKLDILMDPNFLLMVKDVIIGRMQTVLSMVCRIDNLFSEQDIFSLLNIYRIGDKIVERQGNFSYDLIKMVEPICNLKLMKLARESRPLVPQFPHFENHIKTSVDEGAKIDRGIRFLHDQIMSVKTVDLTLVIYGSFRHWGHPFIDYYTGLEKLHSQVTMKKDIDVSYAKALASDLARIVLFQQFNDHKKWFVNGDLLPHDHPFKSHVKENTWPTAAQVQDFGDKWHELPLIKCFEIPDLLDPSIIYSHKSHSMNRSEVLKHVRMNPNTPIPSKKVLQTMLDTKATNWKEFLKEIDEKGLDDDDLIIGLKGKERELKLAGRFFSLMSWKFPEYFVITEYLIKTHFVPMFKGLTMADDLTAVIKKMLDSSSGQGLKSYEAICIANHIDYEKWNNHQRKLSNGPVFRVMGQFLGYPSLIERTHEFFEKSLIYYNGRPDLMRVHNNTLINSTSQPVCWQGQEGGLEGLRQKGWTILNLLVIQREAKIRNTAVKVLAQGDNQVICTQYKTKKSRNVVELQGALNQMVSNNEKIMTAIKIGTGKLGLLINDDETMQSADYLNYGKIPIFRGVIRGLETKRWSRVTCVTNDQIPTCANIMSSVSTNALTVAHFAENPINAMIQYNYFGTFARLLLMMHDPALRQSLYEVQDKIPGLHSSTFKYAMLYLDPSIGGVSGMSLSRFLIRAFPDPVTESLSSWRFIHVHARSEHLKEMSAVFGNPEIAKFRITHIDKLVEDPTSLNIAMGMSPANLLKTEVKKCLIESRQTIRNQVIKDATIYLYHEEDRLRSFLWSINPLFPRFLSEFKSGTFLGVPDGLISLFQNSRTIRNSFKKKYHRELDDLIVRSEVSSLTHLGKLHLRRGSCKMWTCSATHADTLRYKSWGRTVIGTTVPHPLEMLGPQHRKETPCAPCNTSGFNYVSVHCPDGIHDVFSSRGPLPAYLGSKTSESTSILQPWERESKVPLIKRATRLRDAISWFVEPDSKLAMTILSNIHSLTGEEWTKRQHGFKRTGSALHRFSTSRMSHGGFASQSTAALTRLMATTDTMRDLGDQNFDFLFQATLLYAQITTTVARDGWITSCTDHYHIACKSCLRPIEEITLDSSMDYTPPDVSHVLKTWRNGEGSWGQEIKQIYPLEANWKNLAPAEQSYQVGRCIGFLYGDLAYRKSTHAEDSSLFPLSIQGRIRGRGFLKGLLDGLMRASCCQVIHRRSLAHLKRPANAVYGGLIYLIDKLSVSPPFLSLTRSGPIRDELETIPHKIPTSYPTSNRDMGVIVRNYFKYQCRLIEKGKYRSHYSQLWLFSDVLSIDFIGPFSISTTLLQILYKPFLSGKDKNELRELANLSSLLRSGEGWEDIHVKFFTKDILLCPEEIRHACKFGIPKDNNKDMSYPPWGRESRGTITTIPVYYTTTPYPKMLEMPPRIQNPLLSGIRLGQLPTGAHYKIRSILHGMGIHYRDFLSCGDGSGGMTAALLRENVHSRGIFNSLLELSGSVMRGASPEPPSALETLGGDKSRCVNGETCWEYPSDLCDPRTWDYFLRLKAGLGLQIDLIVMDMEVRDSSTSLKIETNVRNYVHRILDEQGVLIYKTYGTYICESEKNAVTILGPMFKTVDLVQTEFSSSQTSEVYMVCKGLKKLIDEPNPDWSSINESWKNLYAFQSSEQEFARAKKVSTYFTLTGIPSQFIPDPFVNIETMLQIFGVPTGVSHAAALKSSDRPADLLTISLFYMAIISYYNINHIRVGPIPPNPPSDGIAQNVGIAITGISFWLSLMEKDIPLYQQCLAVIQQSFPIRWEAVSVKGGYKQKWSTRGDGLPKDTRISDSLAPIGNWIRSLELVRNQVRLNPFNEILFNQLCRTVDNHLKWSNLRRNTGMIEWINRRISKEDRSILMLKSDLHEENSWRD
sequence,measurement,value
AACAG,activity (% 7mGp of released cap),97
